# pKd: −log10 of the molar value.
# Tests used:
# Experiment in all cases: SPR, TYRP1 ECD-Fc captured with anti-PGLALA antibody, 1:1 Langmuir
# [1] = molecular target: Mouse TYRP1 ECD-Fc(knob)-Avi / Fc(hole) (mouse) [IgG part: P01857]
# [2] = molecular target: Cynomolgus TYRP1 ECD-Fc(knob)-Avi / Fc(hole) (cynomolgus) [IgG part: P01857]
# [3] = molecular target: Human TYRP1 ECD-Fc(knob)-Avi / Fc(hole) (human) [IgG part: P01857]
substance,measurement,setting,value
parental TA99 antibody (Fab),pKd,[1],9.51
same,pKd,[2],9.92
same,pKd,[3],10.05

# — patent US20200270347A1
